We go through four molecules from PMC10671532, “Expanded Substrate Specificity in D-Amino Acid Transaminases: A Case Study of Transaminase from Blastococcus saxobsidens” (International Journal of Molecular Sciences, 2023).

In data set [1] the target is T1, BlasaTA (transaminase from Blastococcus saxobsidens) (Blastococcus saxobsidens, UniProt H6RQF3).
T1 construct: gene BLASA_4517; codon-optimized gene in modified pET-21d; N-terminal His6 tag with TEV site kept for kinetics, cut for crystals; E. coli Rosetta (DE3) pLysS; homodimer ~60 kDa
The data set can be described thus: half-reaction with PLP form, absorbance at […] nm, kobs fit. Format: biochemical. The note with it: pH 8.0, 50 mM K-phosphate, 30 °C, single half-reaction, read-out: 50 mM K-Phosphate Buffer, pH 8.0 / KD.

Data set [2] has as its target Recombinant D-amino acid transaminase from Blastococcus saxobsidens (BlasaTA), (His)6-tagged (Blastococcus saxobsidens (strain DD2)). The data set can be described thus: SEC; gel filtration of the purified enzyme; molecular weight approximately 60 kDa against 29.1 kDa for the subunit; conditions not shown.
Substrate in data set [3]: C[C@@H](N)C(=O)O
The data set can be described thus: purified protein. The note with it: co-substrate 5 mM α-ketoglutarate, pH 8.0, 50 mM K-phosphate, 40 °C.

Substrate in data set [4]: CC(=O)C(=O)O
The data set can be described thus: purified protein. The class given is biochemical, Blastococcus saxobsidens. The note with it: co-substrate 15 mM D-glutamate, pH 8.0, 50 mM K-phosphate, 40 °C.

Substrate in data set [5]: CC(C)CC(=O)C(=O)O
Nature of the data set: purified protein. Format: biochemical, Blastococcus saxobsidens. The note with it: co-substrate 25 mM D-alanine, pH 8.0, 50 mM K-phosphate, 40 °C.

Substrate in data set [6]: C[C@@H](N)c1ccccc1
The data set can be described thus: purified protein. The class given is biochemical, Blastococcus saxobsidens. The note with it: co-substrate 2 mM α-ketoglutarate, pH 9.0, 50 mM CHES, 30 °C.

Substrate in data set [7]: N[C@H](CCC(=O)O)C(=O)O
Nature of the data set: purified protein. Particulars: co-substrate 15 mM pyruvate, pH 8.0, 50 mM K-phosphate, 40 °C. The class given is biochemical, Blastococcus saxobsidens.

Substrate in data set [8]: O=C(O)CCC(=O)C(=O)O
Nature of the data set: purified protein. Particulars: co-substrate 25 mM D-alanine, pH 8.0, 50 mM K-phosphate, 40 °C. Format: biochemical, Blastococcus saxobsidens.

In the case of `N[C@H](Cc1ccccc1)C(=O)O` [D-Phenylalanine], in data set [1], the Kd turned out to be 32 ± 2 mM.
On the same count and under the same terms, the figure for `C[C@@H](N)c1ccccc1` [(R)-1-Phenylethyl amine] is 19 ± 2 mM.
As for “Recombinant D-amino acid transaminase from Blastococcus saxobsidens (BlasaTA), (His)6-tagged (enzyme)”, the stoichiometry N in data set [2] turned out to be 2.

B1: BlasaTA (transaminase from Blastococcus saxobsidens) (Blastococcus saxobsidens DD2) (protein)
chain: MNEQRSVAVWRDGAAVTVPAHQPVVTAFDLGLGRGDGIFESVAVVAGRTPHLAAHLTRLTRSAALLGLPAPGDQAWMEMVAAVLADWPAALEGVCRLFLTRGLGDGTPPTALALLAPVPADTLRQRAEGISVATLGLGVPADFRAGAPWLLGGAKTLSYAVNMAAQRHAHDLGADDVVFTSLEGRLLEGPTSTVVWAAGGTLHTPPVETGILPGTTQARLFTAAAADGWPTSVTPGTVDDLHAADAVWLLSGVRGAAVVHTVDGVRRGDGDLSRRVRELLAR
notes: codon-optimized gene in modified pET-21d; N-terminal His6 tag with TEV site kept for kinetics, cut for crystals; E. coli Rosetta (DE3) pLysS; homodimer ~60 kDa
As to B1, the Km was 2000 ± 300 µM in the data set “purified protein [3]”; 1600 ± 100 µM in “purified protein [4]”; 45000 ± 2000 µM in the data set “purified protein [5]”; 6600 ± 400 µM in the data set “purified protein [6]”; 400 ± 60 µM in the data set “purified protein [7]”; 530 ± 60 µM in “purified protein [8]”. In addition, the kcat worked out at 8.1 s⁻¹ in “purified protein [3]”; 7.5 ± 0.3 s⁻¹ in the data set “purified protein [4]”; 0.19 ± 0.004 s⁻¹ in “purified protein [5]”; 0.053 ± 0.002 s⁻¹ in “purified protein [6]”; 7.5 ± 0.3 s⁻¹ in “purified protein [7]”; 8.1 ± 0.3 s⁻¹ in the data set “purified protein [8]”. Further, the kcat/Km amounted to 4000 M⁻¹ s⁻¹ in “purified protein [3]”; 4700 ± 500 M⁻¹ s⁻¹ in the data set “purified protein [4]”; 4.2 ± 0.3 M⁻¹ s⁻¹ in “purified protein [5]”; 8 ± 0.8 M⁻¹ s⁻¹ in “purified protein [6]”; 18800 ± 3600 M⁻¹ s⁻¹ in “purified protein [7]”; 15300 ± 2300 M⁻¹ s⁻¹ in “purified protein [8]”.

The stoichiometry N is the number of molecules, sites or subunits per partner or assembly. For orientation: Km means the concentration of substrate that gives half-maximal velocity. As usually defined, the kcat is the maximal rate divided by the concentration of active sites. As usually defined, the kcat/Km is the turnover number divided by the Michaelis constant.
